The supplement of paper PMC10567573

B1: USP39 (parent)
chain: FQGSMRIFTKKLPHPDLPAEEKEQ

Variants of: B1
Assay: protein stability index of a GFP-peptide fusion (GPS, HEK-293T) (PSI 1-6); higher = more stable
Conditions: c terminus: a fixed tail appended
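Note: lentivirally expressed fusions sorted by FACS into six bins by GFP to DsRed ratio, PSI derived from sequencing read proportions per bin multiplied by bin number.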

In order of rising protein stability index:
1. K10T  1.19
2. K22H  1.22
3. R6N  1.3
4. E21W  1.32
5. L12R  1.32
6. P15Y  1.34
7. A19Y  1.34
8. E20Q  1.36
9. K10M  1.37
10. E21V  1.4
11. L12W  1.45
12. L12F  1.47
13. P15W  1.48
14. T9V  1.5
15. E20V  1.5
16. E20N  1.51
17. A19I  1.53
18. E21C  1.54
19. D16C  1.54
20. F8W  1.56
21. K11H  1.57
22. A19W  1.58
23. E20G  1.59
24. E20H  1.59
25. K11M  1.61
26. M5S  1.61
27. M5T  1.61
28. K10R  1.61
29. P13S  1.61
30. P15V  1.62
31. E21Y  1.62
32. K22Q  1.62
33. L12A  1.62
34. P13Y  1.62
35. A19M  1.63
36. A19G  1.63
37. P15C  1.64
38. R6G  1.64
39. A19R  1.64
40. K11L  1.65
41. H14S  1.65
42. P13L  1.65
43. M5I  1.66
44. L17K  1.66
45. T9I  1.66
46. E20M  1.67
47. K11A  1.68
48. A19T  1.68
49. P13T  1.68
50. K22C  1.69
51. T9C  1.69
52. K11F  1.7
53. P18I  1.7
54. D16A  1.7
55. K11Y  1.71
56. P18V  1.71
57. L12E  1.71
58. L12G  1.72
59. P13D  1.72
60. P15D  1.73
61. E21D  1.73
62. M5G  1.73
63. D16P  1.73
64. A19K  1.73
65. P15Q  1.74
66. P18Y  1.74
67. L12V  1.74
68. K10I  1.74
69. P15I  1.75
70. P18L  1.75
71. T9S  1.75
72. P13V  1.75
73. P15K  1.76
74. R6C  1.76
75. R6F  1.76
76. D16M  1.76
77. H14K  1.77
78. H14G  1.77
79. K22L  1.78
80. H14Q  1.78
81. A19N  1.79
82. P18E  1.8
83. I7C  1.8
84. H14Y  1.8
85. E21A  1.81
86. R6E  1.81
87. K10W  1.81
88. A19F  1.81
89. P18H  1.82
90. R6V  1.82
91. M5H  1.82
92. P18C  1.83
93. R6H  1.83
94. K11P  1.84
95. R6D  1.84
96. I7L  1.84
97. H14I  1.84
98. K10Q  1.84
99. K11W  1.85
100. K11Q  1.85
101. P15L  1.85
102. M5Y  1.85
103. D16S  1.85
104. E20F  1.85
105. L12K  1.86
106. H14P  1.86
107. P13I  1.86
108. K11I  1.87
109. M5P  1.87
110. E20Y  1.87
111. E20D  1.87
112. P18R  1.88
113. P18T  1.88
114. E21G  1.88
115. H14V  1.88
116. L17V  1.88
117. R6K  1.89
118. M5F  1.89
119. M5R  1.89
120. L17I  1.89
121. T9F  1.89
122. K11S  1.9
123. H14A  1.9
124. L17R  1.9
125. E20A  1.9
126. P13Q  1.9
127. E21K  1.91
128. L12I  1.91
129. P15G  1.92
130. P15A  1.92
131. R6A  1.92
132. H14F  1.92
133. L17H  1.92
134. T9L  1.92
135. P15T  1.93
136. P18D  1.93
137. L12T  1.93
138. I7P  1.93
139. H14R  1.93
140. K11G  1.94
141. P15S  1.94
142. K22I  1.94
143. H14N  1.94
144. K10Y  1.94
145. D16K  1.94
146. T9Y  1.94
147. L17M  1.95
148. L17S  1.95
149. E20R  1.95
150. K11T  1.96
151. E21R  1.96
152. K22F  1.96
153. L17P  1.96
154. A19C  1.96
155. D16G  1.97
156. P18N  1.98
157. P18G  1.98
158. P13E  1.98
159. I7V  1.99
160. H14W  1.99
161. L17A  1.99
162. D16V  1.99
163. P13F  1.99
164. K11V  2
165. L12Y  2
166. T9H  2
167. P18K  2.01
168. E21T  2.01
169. R6T  2.01
170. M5L  2.01
171. E21P  2.02
172. P15R  2.03
173. K10F  2.03
174. T9M  2.03
175. E20I  2.03
176. E21L  2.04
177. T9A  2.04
178. L12N  2.05
179. H14E  2.05
180. P13C  2.05
181. K11R  2.06
182. P18M  2.06
183. L17W  2.06
184. P18A  2.07
185. M5K  2.07
186. K10D  2.07
187. E20L  2.07
188. A19D  2.07
189. K11D  2.08
190. E21Q  2.08
191. K22D  2.08
192. K10A  2.08
193. T9K  2.08
194. A19S  2.08
195. K22P  2.09
196. K22N  2.09
197. P15M  2.1
198. P18W  2.1
199. M5A  2.1
200. L17T  2.1
201. P13G  2.1
202. P18F  2.11
203. K22E  2.11
204. M5D  2.11
205. E21S  2.12
206. R6I  2.12
207. I7Y  2.12
208. D16H  2.12
209. E20C  2.12
210. P13M  2.12
211. K22G  2.13
212. D16I  2.13
213. P15F  2.14
214. M5W  2.14
215. P15H  2.15
216. P18Q  2.15
217. L12C  2.15
218. R6M  2.15
219. M5N  2.15
220. P13K  2.15
221. D16F  2.16
222. E20S  2.16
223. L12H  2.17
224. M5V  2.17
225. D16R  2.17
226. E20T  2.17
227. P13R  2.17
228. H14D  2.18
229. D16E  2.18
230. D16Y  2.18
231. P15E  2.19
232. L17G  2.19
233. D16Q  2.19
234. T9Q  2.19
235. K10G  2.2
236. P18S  2.21
237. R6Q  2.22
238. K10V  2.22
239. E21M  2.23
240. K22A  2.23
241. L12Q  2.23
242. T9R  2.23
243. T9W  2.23
244. R6Y  2.24
245. L17E  2.24
246. E21H  2.25
247. S4Y  2.25
248. T9G  2.25
249. A19V  2.25
250. A19H  2.25
251. A19L  2.25
252. L17N  2.26
253. H14C  2.27
254. E21F  2.29
255. M5Q  2.29
256. D16L  2.3
257. R6L  2.31
258. A19Q  2.31
259. K22M  2.32
260. L17D  2.32
261. L17C  2.33
262. L17Q  2.34
263. K11N  2.35
264. F8Y  2.35
265. P13N  2.35
266. E21N  2.36
267. H14M  2.36
268. H14L  2.36
269. H14T  2.36
270. L17F  2.36
271. L12M  2.37
272. R6P  2.37
273. K10H  2.37
274. D16N  2.37
275. A19E  2.37
276. E20W  2.38
277. P13H  2.4
278. P15N  2.41
279. L12S  2.41
280. I7M  2.44
281. K10S  2.44
282. E21I  2.45
283. L12P  2.45
284. M5E  2.5
285. L17Y  2.5
286. A19P  2.5
287. E20K  2.51
288. K10L  2.53
289. I7A  2.56
290. M5C  2.62
291. L12D  2.63
292. D16T  2.64
293. T9N  2.65
294. D16W  2.67
295. T9D  2.73
296. K10N  2.81
297. K11E  2.85
298. I7G  2.89
299. I7F  2.94
300. P13A  2.94
301. I7H  2.97
302. I7T  3.01
303. F8V  3.04
304. R6S  3.04
305. F8C  3.05
306. I7W  3.05
307. T9E  3.07
308. P13W  3.08
309. K11C  3.14
310. T9P  3.14
311. F8I  3.17
312. F8L  3.28
313. F8S  3.29
314. K10P  3.29
315. F8H  3.33
316. I7S  3.38
317. F8P  3.42
318. F8G  3.48
319. F8M  3.52
320. F8R  3.59
321. F8A  3.6
322. F8K  3.64
323. I7N  3.65
324. I7Q  3.65
325. F8N  3.68
326. I7K  3.69
327. F8Q  3.77
328. I7D  3.85
329. K10C  3.86
330. F8T  3.89
331. F8E  4.01
332. I7E  4.04
333. F8D  4.23
334. I7R  4.38
